{"source": "the nanobody polyreactivity screen of Harvey et al. (2022)"}
{"assay": "yeast display, Sf9 membrane polyspecificity reagent, FACS + sequencing; frameworks hold sequencing errors", "method_in_brief": "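Sorting gates, low and high (top ~1%), were placed on anti-HA fluorescence to track expression and on streptavidin fluorescence to track reagent binding. A clone's polyreactivity label is taken from the gate it came out of. The reagent was 10% biotinylated, detergent-solubilized Sf9 membrane, applied for 1 hour at 4 °C to galactose-induced yeast display cells.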"}
{"sequence": "QVQLVESGGGLFQAGGSLRLSCAASGGIFVDNAMGWYRQAPGKERELVAAISWSGGSTYYADSVKGRFTISRYHAKNTVYLQMNSLKPEDTAVYYCAKVYVEDEGYQWADYDYWGQGTQVTVSS", "polyreactivity (PSR sort gate)": "low polyreactivity"}
{"sequence": "QVQLVESGGGLFQAGGSLRLSCAASGGTFPYNAMGWYRPAPGKERELVATISFTDGSTYYADSVKGRFTLSRYIAKNTVYLQMNSLKPEDTAVYYCAKDYYRPGMDYWGQGTQVTVSS", "polyreactivity (PSR sort gate)": "low polyreactivity"}
{"sequence": "QVQLVESGGGLFQAGGSLRLSCAASGIIFYHYAMGWYRQAPGKERELVAAITRSGSRTYYADSVKGRFTISRDNAKNTVYLQLNSLKPEDTAVYYCAYRRRWYGIRNYYWGQGTQVTVSS", "polyreactivity (PSR sort gate)": "high polyreactivity"}
{"sequence": "QVQLVESGGGLFQAGGSLRLSCAASGISFWSYDMGWYRQAPGKERELVAAISRGGESTYYADSVKGRFTISRDLAKNTVYVQMNSLKPEDTAVYYCPALRPREEYYWGQGTQVTVSS", "polyreactivity (PSR sort gate)": "high polyreactivity"}
{"sequence": "QVQLVESGGGLFQAGGSLRLSCAASGITFERYTMGWYRQAPGKERELVAAIRGSGGTYYADSVKGRFTISRENAKNTVYLQMNSLKPEDTAVYYCNAVLWVYYHWPYDYWGQGTQVTVSS", "polyreactivity (PSR sort gate)": "high polyreactivity"}
{"sequence": "QVQLVESGGGLFQAGGSLRLSCAASGLIFRPYAMAWSRQAPGTERELVAAIRGSGGRTYYADSVKGRFTISRDNEKNTVYLQMNSLKPEDTAVYYCAVDVGRHTGYYYWGQGTQVTVSS", "polyreactivity (PSR sort gate)": "high polyreactivity"}
{"sequence": "QVQLVESGGGLFQAGGSLRLSCAASGRIFGAYTKRSYRQAPGKERELVAAITGRGGGTYYADSVKGRFTISRDNAKNTVYLQMNSLKPEDTAVYYCNVKLYYYYFRMYYWGQGTQVTVSS", "polyreactivity (PSR sort gate)": "low polyreactivity"}
{"sequence": "QVQLVESGGGLFQAGGSLRLSCAASGRIFGDNGMGWYRQAPGKERELVTYADSVKGRFTISRDNAKNTVYLQMNSLKPEDTAVYYCNKDPPRLSGLDENYWGQGTQVTVSS", "polyreactivity (PSR sort gate)": "low polyreactivity"}
{"sequence": "QVQLVESGGGLFQAGGSLRLSCAASGRIFGIYAMGWYRQAPGKERELVAAITRGSTYYADSVKGRFTISRDNAKNTVYLQMNSLKPEDTAVYYCNARPRVPGVLYLYDYLGQGTQVTVSS", "polyreactivity (PSR sort gate)": "high polyreactivity"}
{"sequence": "QVQLVESGGGLFQAGGSLRLSCAASGRIFQYHAMGWYRQAPGKERELVAAIRRGRGSTYYADSVKGRFTISRDYAKNTVYLQMNSLKPVDTAVYYCAARRKRVSFYPEYDFWGQGTQVTVSS", "polyreactivity (PSR sort gate)": "low polyreactivity"}
{"sequence": "QVQLVESGGGLFQAGGSLRLSCAASGRIFWNYAMGWYRQAPGKERELVASINWSGGSTYYADSVKGRFTISRDNAKNTVYLQMNSLKPEDTAVYYCNKDGRVYLDHDYWGQGTQVTVSS", "polyreactivity (PSR sort gate)": "low polyreactivity"}
{"sequence": "QVQLVESGGGLFQAGGSLRLSCAASGRIYRFYAMGWYRQAPGKERELVAAISASGGSTYYADSVKGRFTSSRDNAKNTVYLQMISLKPEVTAVYYCAAYSWGGGYYWGQGTQVTVSS", "polyreactivity (PSR sort gate)": "high polyreactivity"}
{"sequence": "QVQLVESGGGLFQAGGSLRLSCAASGRTFNFNVMGWYRQAPGKERELVAAMSKSTGSTFYADSVKGRFTISRDNAKNTVYLQMNSLKPEDTAGYYCAAKPSRSLYYYWGQGTQVTVSS", "polyreactivity (PSR sort gate)": "high polyreactivity"}
{"sequence": "QVQLVESGGGLFQAGGSLRLSCAASGRTFRTNAMGWYRQAPGKERELVAAITRSGGSTYADSVKGRFTISRDNAKNTVYLQMNSLKPEDTAVYYCATTRDWVYNYWGQGTQVTVSS", "polyreactivity (PSR sort gate)": "low polyreactivity"}
{"sequence": "QVQLVESGGGLFQAGGSLRLSCAASGRTFWRYAMAWYRQAPGKERELVARISWRGGSTNYADSVKGRFTISRDNAKNTVYLQMNSLKPAETAVYYFNAEVLNYLVFGYQLGYDYWGQGTQGTVSS", "polyreactivity (PSR sort gate)": "low polyreactivity"}
{"sequence": "QVQLVESGGGLFQAGGSLRLSCAASGRTFYNNAMGWYRQAPGKERELVATINNRGGTTYYADSVKGRFTISRDNAKNTVYLQMNSLKPEDTAVYYCAKSAQRYSYRYYYWGQGTQVTVSS", "polyreactivity (PSR sort gate)": "high polyreactivity"}
{"sequence": "QVQLVESGGGLFQAGGSLRLSCAASGRTFYYYAMGWYRQAPGKERELVASISRTGGPTSYADSVKGRFTISRDTAKNPVYLQMNSLKPEDTAVYYCATRRRVYSGYDYWGQGTQVTVSS", "polyreactivity (PSR sort gate)": "high polyreactivity"}
{"sequence": "QVQLVESGGGLFQAGGSLRLSCAASGSIFEFNAMGWYRQAPGKERELVAGITNSGSSTYYADSVKGRLTISRDHAKNTVYLQMNSLKPEDTAVFYCNARLSRWRRRPYDYWGQGTQVTVSS", "polyreactivity (PSR sort gate)": "high polyreactivity"}
{"sequence": "QVQLVESGGGLFQAGGSLRLSCAASGSNFDYNAMGWYRPAHGKERELVAAITSTDSTYADSVKGRFTISRDTAKNTVYLQMNRLKPEDTAVYYCAAEDVIYYLTGQWREYDYWGQGTQVTVSS", "polyreactivity (PSR sort gate)": "low polyreactivity"}
{"sequence": "QVQLVESGGGLFQAGGSLRLSCAASGSPFSSYAIGWYRQAPGKERELVAAISYRGTRTRYADSVKGRFTISRDNAKNTVYLQMNSLKPEDTAVYDCAADRTFYGIRFDYWGQGTQVTVSS", "polyreactivity (PSR sort gate)": "low polyreactivity"}
{"sequence": "QVQLVESGGGLFQAGGSLRLSCAASGSTFDTNVMGWYRQAPGKERELVAAIDVSGGSTYYADSVKGRFTISRDNAKNTVYLQMNSLKPEDTAVYYCAAEGTTWYYDMDYWGQGTQVTVSS", "polyreactivity (PSR sort gate)": "low polyreactivity"}
{"sequence": "QVQLVESGGGLFQAGGSLRLSCAASGSTFGFNAMGWYRQAPGKEREFVAAINTSGGNTYYADSVKGRFTISRDNAKNTVYLQMNSLKPEDTAVYYCNAREGHLYGYPYGYWGQGTQVTVSS", "polyreactivity (PSR sort gate)": "low polyreactivity"}
{"sequence": "QVQLVESGGGLFQAGGSLRLSCAASGSTFGSYAMGWYRQAPAKERELVADISSRGASTYYADSVKGRFTISRDNEKNTVYLEMISLKPEDTAVYYCNTTGEYYDYWGHGTQVTVSS", "polyreactivity (PSR sort gate)": "low polyreactivity"}
{"sequence": "QVQLVESGGGLFQAGGSLRLSCAASGSTFLIYAMGWYRQAPGKERELVATIRSGGASTNYADSVKGRFTISRDNAKNTVYLQMNSLKPEDTAVYYCPARCWTWTYQSSYVYWGQGTQVTVSS", "polyreactivity (PSR sort gate)": "low polyreactivity"}
{"sequence": "QVQLVESGGGLFQAGGSLRLSCAASGSTFYAYAIGWYRQAPGKERELVAAITLSGGSTYYADSVKGRFTISRDNAKNTVYLQMNSLKPEDTAVYYCAADQLRCGDYYWGQGTQVTVSS", "polyreactivity (PSR sort gate)": "high polyreactivity"}
{"sequence": "QVQLVESGGGLFQAGGSLRLSCAASGYIFGSYVMGWYIQAPGKERELVAAISRRGGSTYYADSVKGRFTISRDNAKNTVYLQMNSLNPEDTAVYYCAADDGQYAKYDYWGQGTQVTVSS", "polyreactivity (PSR sort gate)": "high polyreactivity"}
{"sequence": "QVQLVESGGGLFQAGGSLRLSCAASGYIFVRYAMGWYRQAPGKEREFVAAISSSGGSTRYADSVKGRFTISRDKAKYNVYLQMNSLKPEDTAVYYCAATRVARDGSPMYYWGQGTQVTVSS", "polyreactivity (PSR sort gate)": "high polyreactivity"}
{"sequence": "QVQLVESGGGLFQAGGSLRLSCAPSGFTFSNYAMGWYRQAPGKEREFVAAISGTGGSTYYADSVKGRFTISRDNAKNTVYLQMNSLKPEDTEVYYCYFYFRRQYEHEYWGQGTQVTVSS", "polyreactivity (PSR sort gate)": "high polyreactivity"}
{"sequence": "QVQLVESGGGLFQAGGSLRLTCAASGRIFTHYSMGWYRQPPGKEREFVAAISRSGARTYYADSVKGRFTISRDYAKNTVYLQMYSLKREVTSVYYCAKDQVDSPRDRYQKLDFWGQGTQVTVSS", "polyreactivity (PSR sort gate)": "low polyreactivity"}
{"sequence": "QVQLVESGGGLFQAGGSLRVSCAASGFTFVYYAMGWYRQAPGKERELVAAITASGGSTYYADSVQGRFTISRDNAKNTVYLQMNSLKPEDSADYYCNTVRYVRHYRQSGYWGQGTQVTVSS", "polyreactivity (PSR sort gate)": "high polyreactivity"}
{"sequence": "QVQLVESGGGLFQAGGSLRVSCAASGITFRDNGMVWYRQAPGKERELVAAITSGGSTYYADSVKGSCTISRDHAKNTVYFQMNSLKPEDTAVYLCAAKRIKRRGWRQLSWYDSWGQGTQVTVSS", "polyreactivity (PSR sort gate)": "high polyreactivity"}
{"sequence": "QVQLVESGGGLFQAGGSLRVSSAPSGITFYGYAMGWYRQAPGKERELVAAINRGGTGTYYADSVKGRFTISRYNAKNTVYLQMNSLTPEDTAVYYCNKAGYPLADPTAGKRQFDDWGQGTEVTVSS", "polyreactivity (PSR sort gate)": "low polyreactivity"}
